# Assay results from article PMC4822050, “Hemi-methylated DNA opens a closed conformation of UHRF1 to facilitate its histone recognition” (Nature Communications, 2016).
# T1: TTD (residues 134–285) of UHRF1 (Homo sapiens, UniProt Q96T88)
# T1 construct: TTD (residues 134–285); GST (N, cleaved yes); made in house; host or cells: E. coli BL21 (DE3)
# T1 sequence (Q96T88 134-285): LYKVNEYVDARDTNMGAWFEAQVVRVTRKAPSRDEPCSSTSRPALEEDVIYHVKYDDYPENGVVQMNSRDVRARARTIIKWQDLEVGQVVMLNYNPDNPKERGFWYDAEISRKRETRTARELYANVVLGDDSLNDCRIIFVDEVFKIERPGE
# T2: Spacer (residues 587–674) of UHRF1 (Homo sapiens, UniProt Q96T88)
# T2 construct: Spacer (residues 587–674); GST (N, cleaved yes); made in house; host or cells: E. coli BL21 (DE3)
# T2 sequence (Q96T88 587-674): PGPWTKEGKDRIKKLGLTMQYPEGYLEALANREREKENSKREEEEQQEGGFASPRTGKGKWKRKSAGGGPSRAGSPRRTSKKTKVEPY
# Experiments:
# Format in all cases: binding
# [1] = target: T1, TTD (residues 134–285) of UHRF1; assay: ITC, TTD titrated into Spacer variants and other UHRF1 fragments; details: TTD in syringe; for N: ITC stoichiometry; for ΔH / ΔS: ITC
# Procedure: (§1) For competition ITC experiments: the indicated proteins were pre-incubated with competitive peptide, protein or hm-DNA (at 1:2 molar ratio if not specified) for 10 min followed by ITC measurements as described above. Proteins, DNA and peptides were prepared within ITC buffer containing 10 mM HEPES, pH 8.0, 100 mM NaCl. The data were fitted by software Origin 7.0. All ITC results were summarized in Supplementary Table 2 and raw data were shown in Supplementary Fig. 9.
# [2] = target: T2, Spacer (residues 587–674) of UHRF1; assay: ITC, interaction of UHRF1 domains with the Spacer; details: for N: ITC stoichiometry
# Procedure: as §1
# FAM-12bp-HM-DNA = assay: Fluorescence polarization, 12-bp FAM-hm-DNA; details: FP, 25 °C, 20 min; 20 mM HEPES pH 7.5, 175 mM NaCl, 8% glycerol, 1 mM DTT; triplicate; Fig. 5b and Supplementary Table 4
# Procedure: A 6-carboxy-fluorescein (FAM)-labelled primer, 5′-CCATGCGCTGAC-3′, was annealed to a primer 5′-GTCAGXGCATGG-3′ (X=5-methyldeoxycytosine). The hemi-methylated double-strand DNA was used in both electrophoretic mobility-shift assay and FP assays. […] The samples were subjected to a 10% polyacrylamide gel electrophoresis and run in 0.5 × Tris-borate-EDTA buffer at 100 V for 1 h at 4 °C. The results were visualized on Tanon-5200 Chemiluminescent Imaging System (Tanon Science & Technology Co., Ltd).
# FP measurements were performed at 25 °C on Synergy 4 Microplate Reader (BioTek). The 16-bp and 20-bp FAM-labelled hm-DNA (lower strand: 5′-GTGTCAGXGCATGGCC-3′ and 5′-CCGTGTCAGXGCATGGCCAT-3′, respectively. X=5-methyldeoxycytosine) were used in the FP experiment to test the effect of DNA length on the protein/DNA interaction. All experiments were performed in triplicate. The curves were fitted by GraphPad Prism 5. For salt concentration-dependent FP experiments, the reaction buffer contains 50 mM or 150 mM NaCl, respectively.
# [3] = ITC, 18 °C, Spacer in syringe, named protein in cell, 10 mM HEPES pH 8.0, 100 mM NaCl
# [4] = ITC, Fig. 3e, wild-type or mutant TTD in syringe, Spacer in cell
Molecule,N [1],ΔH [1],ΔS [1] [cal/mol/deg],other results
"Spacer∆650-654: internal deletion of the Spacer, residues 650–654 (protein, left off: GST, end not stated, cleaved) PGPWTKEGKDRIKKLGLTMQYPEGYLEALANREREKENSKREEEEQQEGGFASPRTGKGKWKRGPSRAGSPRRTSKKTKVEPY",0.967±0.0122,-6.475 ± 0.1071 kcal/mol,2.57,
"Spacer∆660-664: internal deletion of the Spacer, residues 660–664 (protein, left off: GST, end not stated, cleaved) PGPWTKEGKDRIKKLGLTMQYPEGYLEALANREREKENSKREEEEQQEGGFASPRTGKGKWKRKSAGGGPSRATSKKTKVEPY",1.01±0.00976,,-10.2,
"Spacer∆655-659: internal deletion of the Spacer, residues 655–659 (protein, left off: GST, end not stated, cleaved) PGPWTKEGKDRIKKLGLTMQYPEGYLEALANREREKENSKREEEEQQEGGFASPRTGKGKWKRKSAGGGSPRRTSKKTKVEPY",0.988±0.0147,-7.634 ± 0.1561 kcal/mol,-0.906,
"Spacer ∆642-651: internal deletion of the Spacer, residues 642–651 (protein, left off: GST, end not stated, cleaved) PGPWTKEGKDRIKKLGLTMQYPEGYLEALANREREKENSKREEEEQQEGGFASPRAGGGPSRAGSPRRTSKKTKVEPY",0.891±0.0733,-3.833 ± 0.4259 kcal/mol,9.58,
"TTD: tandem Tudor domain of human UHRF1 (residues 134–285) (protein, UniProt Q96T88 134-285, looked up, fragment, tandem Tudor domain) LYKVNEYVDARDTNMGAWFEAQVVRVTRKAPSRDEPCSSTSRPALEEDVIYHVKYDDYPENGVVQMNSRDVRARARTIIKWQDLEVGQVVMLNYNPDNPKERGFWYDAEISRKRETRTARELYANVVLGDDSLNDCRIIFVDEVFKIERPGE",,,,"N ([2]; Spacer in syringe): 0.991±0.0134; Kd [2, 3]: 1480 nM; Kd [2, 4]: 1590 nM; ΔH ([2]; ITC, Spacer in syringe): -1.614E4±297.4 cal/mol; ΔS ([2]; ITC, Spacer in syringe): -28.7 cal/mol/deg; interaction between the Spacer and the named protein in the presence of H3K9me3 ([2]; ITC, molar ratio of TTD-PHD or TTD: H3K9me3=1:2): No detectable interaction"
"TTDD142A,E153A: mutation D142A/E153A of the TTD (protein, left off: GST, end not stated, cleaved, mutation D142A/E153A of the TTD) LYKVNEYVAARDTNMGAWFAAQVVRVTRKAPSRDEPCSSTSRPALEEDVIYHVKYDDYPENGVVQMNSRDVRARARTIIKWQDLEVGQVVMLNYNPDNPKERGFWYDAEISRKRETRTARELYANVVLGDDSLNDCRIIFVDEVFKIERPGE",,,,"KD [2, 4]: abolished"
"TTD-PHDRR295,296DD: mutation R295D/R296D (within the Linker) of TTD–PHD (protein, left off: GST, end not stated, cleaved, mutation R295D/R296D (within the Linker) of TTD–PHD) LYKVNEYVDARDTNMGAWFEAQVVRVTRKAPSRDEPCSSTSRPALEEDVIYHVKYDDYPENGVVQMNSRDVRARARTIIKWQDLEVGQVVMLNYNPDNPKERGFWYDAEISRKRETRTARELYANVVLGDDSLNDCRIIFVDEVFKIERPGEGSPMVDNPMDDKSGPSCKHCKDDVNRLCRVCACHLCGGRQDPDKQLMCDECDMAFHIYCLDPPLSSVPSEDEWYCPECRND",,,,"N ([2]; Spacer in syringe): 0.944±0.0158; Kd [2, 3]: 2690 nM; ΔH ([2]; ITC, Spacer in syringe): -1.399E4±290.7 cal/mol; ΔS ([2]; ITC, Spacer in syringe): -22.5 cal/mol/deg"
"Spacer∆665-669: internal deletion of the Spacer, residues 665–669 (protein, left off: GST, end not stated, cleaved) PGPWTKEGKDRIKKLGLTMQYPEGYLEALANREREKENSKREEEEQQEGGFASPRTGKGKWKRKSAGGGPSRAGSPRRKVEPY",1.06±0.00978,,-12.9,
"Spacer∆670-674: deletion of the Spacer, residues 670–674 (protein, left off: GST, end not stated, cleaved) PGPWTKEGKDRIKKLGLTMQYPEGYLEALANREREKENSKREEEEQQEGGFASPRTGKGKWKRKSAGGGPSRAGSPRRTSKKT",1.1±0.0102,,-9.46,
"SRA-Spacer-661: UHRF1 residues 414–661 (protein, UniProt Q96T88 414-661, looked up, fragment) PSNHYGPIPGIPVGTMWRFRVQVSESGVHRPHVAGIHGRSNDGAYSLVLAGGYEDDVDHGNFFTYTGSGGRDLSGNKRTAEQSCDQKLTNTNRALALNCFAPINDQEGAEAKDWRSGKPVRVVRNVKGGKNSKYAPAEGNRYDGIYKVVKYWPEKGKSGFLVWRYLLRRDDDEPGPWTKEGKDRIKKLGLTMQYPEGYLEALANREREKENSKREEEEQQEGGFASPRTGKGKWKRKSAGGGPSRAGS",,,,Kd (FAM-12bp-HM-DNA): 380 ± 60 nM
"SpacerK648D: mutation K648D of the Spacer (protein, left off: GST, end not stated, cleaved, mutation K648D of the Spacer) PGPWTKEGKDRIKKLGLTMQYPEGYLEALANREREKENSKREEEEQQEGGFASPRTGKGKWDRKSAGGGPSRAGSPRRTSKKTKVEPY",0.659±0.0209,-8.45 ± 0.3659 kcal/mol,-5.07,
"SpacerS639D: mutation S639D of the Spacer, negative control (protein, left off: GST, end not stated, cleaved, mutation S639D of the Spacer, negative control) PGPWTKEGKDRIKKLGLTMQYPEGYLEALANREREKENSKREEEEQQEGGFADPRTGKGKWKRKSAGGGPSRAGSPRRTSKKTKVEPY",1.03±0.0102,-1.125E4±153.8 cal/mol,-11.4,
"SpacerR649A: mutation R649A of the Spacer (protein, left off: GST, end not stated, cleaved, mutation R649A of the Spacer) PGPWTKEGKDRIKKLGLTMQYPEGYLEALANREREKENSKREEEEQQEGGFASPRTGKGKWKAKSAGGGPSRAGSPRRTSKKTKVEPY",1.06±0.0256,-8.277 ± 0.352 kcal/mol,-7.04,
"SpacerS666D: mutation S666D of the Spacer, negative control (protein, left off: GST, end not stated, cleaved, mutation S666D of the Spacer, negative control) PGPWTKEGKDRIKKLGLTMQYPEGYLEALANREREKENSKREEEEQQEGGFASPRTGKGKWKRKSAGGGPSRAGSPRRTDKKTKVEPY",1.08±0.0104,-1.219E4±159.8 cal/mol,-14.9,
"SpacerS651D: mutation S651D of the Spacer (protein, left off: GST, end not stated, cleaved, mutation S651D of the Spacer) PGPWTKEGKDRIKKLGLTMQYPEGYLEALANREREKENSKREEEEQQEGGFASPRTGKGKWKRKDAGGGPSRAGSPRRTSKKTKVEPY",0.998±0.0189,,-19.3,
